Results published in article PMC6367345 (Scientific Reports, 2019).
Substitutions are numbered along the chain they refer to.

Assays:
MEDI-579 Fab (human) = experiment: SPR; BIAcore T100; antibody (MEDI-579 Fab) amine-coupled to a CM3 sensorchip at about 500 RU; serial dilution of PAI-1 between 6.25 nM and 25 pM in HBS-EP+ passed over the surface
[1] = molecular target: human plasminogen activator inhibitor-1 (PAI-1), active (native) form (Homo sapiens, UniProt P05121, glycosylated (SPR preparation))
rat PAI-1 = molecular target: T1, rat PAI-1 (Rattus norvegicus, UniProt P20961); experiment: SPR; BIAcore T100; antibody (MEDI-579 Fab) amine-coupled to a CM3 sensorchip at about 500 RU; serial dilution of PAI-1 between 6.25 nM and 25 pM in HBS-EP+ passed over the surface; settings: both partners purified
T1 construct: source: bought: Molecular Innovations (SPR)
T1 sequence (P20961 24-402): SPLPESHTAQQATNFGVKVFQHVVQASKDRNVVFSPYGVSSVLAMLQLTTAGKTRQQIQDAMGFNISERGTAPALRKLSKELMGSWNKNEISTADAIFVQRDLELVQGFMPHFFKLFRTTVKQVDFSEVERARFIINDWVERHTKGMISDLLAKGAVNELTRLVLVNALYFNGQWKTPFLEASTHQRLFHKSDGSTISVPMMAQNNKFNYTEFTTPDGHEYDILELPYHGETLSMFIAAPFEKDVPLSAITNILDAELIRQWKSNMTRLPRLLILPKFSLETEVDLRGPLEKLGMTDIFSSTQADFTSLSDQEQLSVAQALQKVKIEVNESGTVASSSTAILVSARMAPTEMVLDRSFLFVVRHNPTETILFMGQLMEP

MEDI-579 Fab (human), sequence (light, as listed by the source): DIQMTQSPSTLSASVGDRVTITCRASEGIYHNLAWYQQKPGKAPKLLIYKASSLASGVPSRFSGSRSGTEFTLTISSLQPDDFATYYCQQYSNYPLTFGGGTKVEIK
human plasminogen activator inhibitor-1 (PAI-1), active (native) form (Homo sapiens, UniProt P05121, glycosylated (SPR preparation)), sequence (P05121 24-402): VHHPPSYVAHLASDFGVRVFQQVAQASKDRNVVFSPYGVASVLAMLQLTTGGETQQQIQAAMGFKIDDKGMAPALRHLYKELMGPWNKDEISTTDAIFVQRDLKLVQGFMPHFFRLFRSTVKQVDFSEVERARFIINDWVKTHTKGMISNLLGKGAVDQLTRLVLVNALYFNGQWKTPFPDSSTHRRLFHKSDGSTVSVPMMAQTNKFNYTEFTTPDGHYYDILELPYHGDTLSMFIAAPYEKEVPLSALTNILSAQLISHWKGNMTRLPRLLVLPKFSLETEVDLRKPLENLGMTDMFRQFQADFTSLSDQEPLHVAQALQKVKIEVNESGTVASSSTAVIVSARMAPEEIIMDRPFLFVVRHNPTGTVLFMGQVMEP

Work on “human plasminogen activator inhibitor-1 (PAI-1), active (native) form (from UniProt P05121 24-402) (natural protein)” yielded a Kd (MEDI-579 Fab (human)) of 0.006 nM, a koff (MEDI-579 Fab (human)) of 4.18e-05 s⁻¹ and a kon (MEDI-579 Fab (human)) of 7.02e+06 M⁻¹ s⁻¹.

B1: Parent (antibody, V domains shown)
VH: QVQLQQSGAEVKKPGSSVKVSCKASGGTFSSYAISWVRQAPGQGLEWMGGIIPIFDTANYAQKFQGRVTITADESTSTAYMELSSLRSEDTAVYYCAREKRQWLEGHFDYWGRGTLVTVSS
VL: DIQMTQSPSFLSASIGDRVTITCRASEGIYHWLAWYQQKPGKAPKLLIYKASSLASGAPSRFSGSGSGTDFTLTISSLQPDDFATYYCQQYSNYPLTFGGGTKLEIK
B1: binds [1].

B2: MEDI-579 Fab (Fab, V domains shown)
VH: B1 VH with Q5V, I54T, D56G, K100R
VL: B1 VL with F10T, I15V, W32N, A58V, G66R, D70E, L104V
notes: heavy chain of the Fab; closest germline IGHV1-69*12; light chain of the Fab; closest germline IGKV1-5*03; The Fab for crystallisation was made by papain digestion of the IgG1
B2 was tested, and the Kd (rat PAI-1) was 0.105 nM, the koff (rat PAI-1) was 0.000797 s⁻¹ and the kon (rat PAI-1) was 7.64e+06 M⁻¹ s⁻¹.
